One block for each binder: values may come before it.
Legend:
[1] = target: T1, human IL-33 (R&D Systems, #3625-IL-010/CF) (human, UniProt O95760 112-270); assay: cell-based or functional assay
T1 sequence (looked up): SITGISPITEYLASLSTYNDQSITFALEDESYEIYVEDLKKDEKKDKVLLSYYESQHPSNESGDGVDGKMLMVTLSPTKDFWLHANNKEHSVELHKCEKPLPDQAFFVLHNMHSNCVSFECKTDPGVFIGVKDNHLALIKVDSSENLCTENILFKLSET

[2] = target: T2, cyno IL-33 N-His (cynomolgus monkey); assay: SPR Biacore T200, 37 C
T2 chain: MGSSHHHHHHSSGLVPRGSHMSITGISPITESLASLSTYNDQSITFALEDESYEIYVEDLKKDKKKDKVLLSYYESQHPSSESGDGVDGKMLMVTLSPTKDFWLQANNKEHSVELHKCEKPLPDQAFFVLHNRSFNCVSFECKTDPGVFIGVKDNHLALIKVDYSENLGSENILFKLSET
Summary of the method: (§1)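 Antibodies captured via anti-Fc on CM5 chip; IL-33 injected at 3.7–100 nM (three-fold series), 4 min association, 10 min dissociation, 30 μl/min, ADA pH 7.4 buffer with 0.15 M NaCl, EDTA, Tween-20, at 25 °C or 37 °C. KD = koff/kon from 1:1 Langmuir fit; t1/2 = ln(2)/(60*koff).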

[3] = target: T1, human IL-33 (R&D Systems, …); assay: SPR Biacore T200, 37 C
Summary of the method: as §1

[4] = target: T2, cyno IL-33 N-His; assay: SPR Biacore T200, 25 C
Summary of the method: as §1

[5] = target: T1, human IL-33 (R&D Systems, …); assay: SPR Biacore T200, 25 C
Summary of the method: as §1

[6] = target: T1, human IL-33 (R&D Systems, …); assay: cell-based or functional assay; remark: listed apart in the source
[7] = target: T3, biotinylated cyno IL-33 (cynomolgus monkey, UniProt A0A2K5W3I1 112-269, biotin-labeled with EZ-LINK NHS-PEG4-Biotin); assay: competitive ELISA, biotin-cyIL-33 to coated hST2-Fc
T3 construct: also called biotin-cyIL-33
T3 sequence: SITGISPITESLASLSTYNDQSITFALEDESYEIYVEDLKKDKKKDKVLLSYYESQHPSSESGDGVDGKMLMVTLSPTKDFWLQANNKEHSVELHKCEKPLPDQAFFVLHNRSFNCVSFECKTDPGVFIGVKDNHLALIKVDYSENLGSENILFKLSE
Summary of the method: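 Recombinant human ST2-Fc coated at 1 μg/ml; biotin-IL-33 (final 20 pM human, 45 pM cyno) premixed 1 h RT with serially diluted antibody (0–300 nM final), then bound to ST2-Fc 1 h RT. Streptavidin-polyHRP/TMB, A450; IC₅₀ from four-parameter fit, max blocking relative to IL-33-alone signal minus background.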

Ph-p38 MFI at 0.4 nM Ab (500 pM human IL-33, primary basophils) [1]: 34 MFI
Kd [2]: 0.476 nM
koff [2]: 0.000804 s⁻¹
kon [2]: 1.69e+06 M⁻¹ s⁻¹
t1/2 [2]: 14 min
Kd [3]: 0.0889 nM
koff [3]: 0.000547 s⁻¹
kon [3]: 6.16e+06 M⁻¹ s⁻¹
t1/2 [3]: 21 min
Kd [4]: 0.265 nM
koff [4]: 0.000278 s⁻¹
kon [4]: 1.05e+06 M⁻¹ s⁻¹
t1/2 [4]: 42 min
Kd [5]: 0.133 nM
koff [5]: 0.000613 s⁻¹
kon [5]: 4.6e+06 M⁻¹ s⁻¹
t1/2 [5]: 19 min
Ph-p38 MFI at 2 nM Ab (500 pM human IL-33, primary basophils) [6]: 23 MFI
IC50 [7]: 0.43 nM
Maximum Blocking [7]: 87%
B1: 10C12.38.H6.87Y.58I IgG4 (antibody, V domains shown)
VH: EVQLVESGGGLVQPGGSLRLSCAASGFTFSSFSMSWVRQAPGKGLEWVATISGGKTFTDYVDSVKGRFTISRDDSKNTLYLQMNSLRAEDTAVYYCTRANYGNWFFEVWGQGTLVTVSS
VL: EIVLTQSPATLSLSPGERATLSCRASESVAKYGLSLLNWFQQKPGQPPRLLIFAASNRGSGIPARFSGSGSGTDFTLTISSLEPEDFAVYYCQQSKEVPFTFGQGTKVEIKR
notes: also called anti-IL33 10C12.38.H6.87Y.58I IgG4

Ph-p38 MFI at 0.4 nM Ab (500 pM human IL-33, primary basophils) [1]: 119 MFI
Kd [2]: 4.13 nM
koff [2]: 0.00114 s⁻¹
kon [2]: 277000 M⁻¹ s⁻¹
t1/2 [2]: 10 min
Kd [3]: 0.462 nM
koff [3]: 0.000498 s⁻¹
kon [3]: 1.08e+06 M⁻¹ s⁻¹
t1/2 [3]: 23 min
Kd [4]: 2.61 nM
koff [4]: 0.000479 s⁻¹
kon [4]: 183000 M⁻¹ s⁻¹
t1/2 [4]: 24 min
Kd [5]: 1.09 nM
koff [5]: 0.000499 s⁻¹
kon [5]: 456000 M⁻¹ s⁻¹
t1/2 [5]: 23 min
Ph-p38 MFI at 2 nM Ab (500 pM human IL-33, primary basophils) [6]: 49 MFI
IC50 [7]: 47 nM
Maximum Blocking [7]: 42%
B2: H4H9659P (antibody, IgG4, V domains shown)
VH: QVQLVQSGAEVKKPGASVKVSCKASGYTFNSYGISWVRQAPGQGLEWMGWISSHNGNSHYVQKFQGRVSMTTDTSTSTAYMELRSLRSDDTAVYYCARHSYTTSWYGGFDYWGQGTLVTVSS
VL: DIQMTQSPSSVSASVGDRVTITCRASQGFSSWLAWYQQKPGKAPQLLIYAASSLQSGVPSRFSGSGSGSDFTLTISSLQPEDFATYYCQQANSFPLTFGGGTKVEIK
notes: also called RG7

Source: patent publication US20190092852A1 (Genentech, published 2019)
